Assay: soluble on expression in E. coli; label from the status in PepcDB or PDB records

Row | Sequence | soluble on expression in E. coli
1 | MAHHHHHHMGEGTAAAPPHSQEPRLRRRPRQLTVRHVVHVQPTSYFAQFERRCRHDALLYSPFLREDRVQARPKTLPPSLHREVGEPGVYAAYNAYIFADVAGQHDPLHHRRVCAAADHGEEEAVAARVEAGGDVVVATNVSSPPRPDSSKSLSAVQLSLTPLLSFTLDDMADTADGDAGMGNRVECESGSTRIGEAHRCHPPPPLLHGTPPEAGLPLHKTWHLFTSYVQRHFTAFPTALVHRYHLHHLAPSLFPNVGAAALMQGAGGAGNATGDRAARSGTAVGVAISTEASGSGSAVRAARAKPNVSNSSSSSAEDVVEYWPYSLKLRCIPEATLQLPYKQHATAKKTTQAQQRAEMAGSARQAPSTVNASLGHDAATAAAVPSPHLPAPRKRERQVSSSGDSASAPAYTVHASASSSTATAATPRVLPPPAAAARTRPPSAPPRRVAVVDGVTSLLPYPTPASALALLSTTFLRSLRTSSVVAAAAAAAAGTGEVPATPSTLTESRADWHGGFAASHQRVDVPSTGMVGMGGGALGFLGTGSAVPSKYRNVSGTFLELHLPAYCFPGGGCPVKPLLHDDDSAHASGAAAVVAEDTPSATSASPPAGEAACARREGDAVLGFGSADSSTYSCGPATVSMDESQKTAPRRWSSAPLKMDSQQLRPWGGYPGLWRGQCRAARLSMRASPWR | soluble
2 | MAHHHHHHMGGCCKGARCPFSHELVQLPPKGVDASGGYFISGNVANYRAAASTSTASPSSRSFVGRWDDPTASSSTDGLSTLASPSSCCVTTGTSLSAEAKEWVGADSAATSSSANSATASITSVQSLRGAASPTFCVSSSSLRYRSAALRRTAQQVSPLPMPHSQRDSQPQPQQAQTQLQSQQSQKPQPSPPQPQLHQQHKRQYQPPPQPRSVANALSALLPNHSESSAAAETRHTSAAPAHPAATARTVSFTQSSNGSGSTTIAALASFFDMQRVSTGAPSATPSSAASQPSKVVFATRRDDQTPATAPTPATAAPPRYTAACITLAASNQRFDPSPSAPSIPTTATPAPAHGSSRSATTSQHMEAPLPRSREALATGAEHQTATVAKAHVTQSAAPPSAAAAPTSPPQYESRTASSAQTRVMPPAPRSQQQQAAHQAQQLRAQEEAQRQVQIQQQLHAQQQAQQLAQQQAQLQQFQQQIQPQKPPPPQQTVYMLTTSRPPTTSTPPHEGIVAPDQLPLGYTLAYAVSTPTPTASAATPILISEQPSAARPTYTLLSSCPPQSQLQSFQTAKGTVLYATPAQVLTQAAAPSENDAPRLILVNTDGTFTVLQAETLAATAGLGLSPTIMRAH | not soluble
3 | MAHHHHHHMGKNETDTDVLTSNVEVGSVLSQCAESRVHECNFYGYRAVCKHRFPKAYRHPALDQRLREQRTVREGRALARCLKNGVLAPTVFAVDRERCAIVMERIDGLTVREIFNHEQGNVAQGKTDVSFLVSFLLRGMGEVVGLLHNADIIHGDLTTSNFMCKRNFLERRLSTENLASNTSSRDSIVVLDFGLVMDKNSAEERAVDLYVLERALKSSHPFLEHVATRLVLEGYHRTVDPQKGSVTMARLEAVRARGRKRSMIG | not soluble
4 | MAHHHHHHMGQAFMEDQGNSLVVWGSTGRRLQFSMQDLKMPASLRDTPHFHFYEKQWDAVASFWFNRVLKESALQHLSVEAIVELIRQDISKRWERRREEQSIYKKRKRLLQRSGPAGTPSASVLLTNVTTLDGYQAATEMEQRDLVTALVERVEDVANDKVESWQVLVDDASEQRPAKAARVEGTAATSGEHPENDADGASDFDDRVAVVLKLSSKEKAATTIAHLHGSRFDDRRVLCRFWSE | soluble
5 | MAHHHHHHMGTLEAQTQGPGSMIGITQAEAVLTIELQRPERRNALNSQLVEELTQAIRKAGDGSARAIVLTGQGTAFCAGADLSGDAFAADYPDRLIELHKAMDASPMPVVGAINGPAIGAGLQLAMQCDLRVVAPDAFFQFPTSKYGLALDNWSIRRLSSLVGHGRARAMLLSAEKLTAEIALHTGMANRIGTLADAQAWAAEIARLAPLAIQHAKRVLNDDGAIEEAWPAHKELFDKAWGSQDVIEAQVARMEKRPPKFQGA | soluble
6 | MAHHHHHHMGTLEAQTQGPGSMKGEPKVIERLNEALFLELGAVNQYWLHYRLLNDWGYTRLAKKEREESIEEMHHADKLIDRIIFLEGFPNLQTVSPLRIGQNVKEVLEADLKGEYDARASYKESREICDKLGDYVSKQLFDELLADEEGHIDFLETQLDLLAKIGGERYGQLNAAPADEAE | soluble
7 | MAHHHHHHMGTLEAQTQGPGSMNAAVIDSHSAQDYVVADIALAGWGRKELNIAETEMPGLVQIRDEYKAQQPLKGARIAGSLHMTIQTGVLIETLKALGADVRWASCNIFSTQDHAAAAIVEAGTPVFAFKGESLDEYWEFSHRIFEWPNGEFANMILDDGGDATLLLILGSKAEKDRSVIARPTNEEEVALFKSIERHLEIDGSWYSKRLAHIKGVTEETTTGVHRLYQMEKDGRLPFPAFNVNDSVTKSKFDNLYGCRESLVDGIKRATDVMIAGKIAVVAGYGDVGKGCAQSLRGLGATVWVTEIDPICALQAAMEGYRVVTMEYAADKADIFVTATGNYHVINHDHMKAMRHNAIVCNIGHFDSEIDVASTRQYQWENIKPQVDHIIFPDGKRVILLAEGRLVNLGCATGHPSFVMSNSFTNQTLAQIELFTRGGEYANKVYVLPKHLDEKVARLHLARIGAQLSELSDDQAAYIGVSKAGPFKPDHYRY | soluble
8 | MAHHHHHHMGTLEAQTQGPGSMNLDNVTGGDNVPKEINVIIEISQNSCPVKYEFDKEKNLFCVDRFLPTSMYYPCNYGFIPHTCAGDGDPVDVLVASRFPVMSGAVIRARPVGVLVMHDESGEDVKILAVPTHKVDQYYNNIKDYSDFPVSFLNSISHFFTFYKKLEEDKFVSVEGWKDVTVAEKLILSALIK | soluble
9 | MAHHHHHHMGTLEAQTQGPGSMQKNMVETEPVQGCRDFPPEAMRCRRHLFDVFHATAKTFGFEEYDAPVLESEELYIRKAGEEITEQMFNFITKGGHRVALRPEMTPSLARLLLGKGRSLLLPAKWYSIPQCWRYEAITRGRRREHYQWNMDIVGVKSVSAEVELVCAACWAMRSLGLSSKDVGIKVNSRKVLQTVVEQAGVTSDKFAPVCVIVDKMEKIPREEVEAQLAVLGLEPTVVDAITTTLSLKSIDEIAQRVGEEHEAVKELRQFFEQVEAYGYGDWVLFDASVVRGLAYYTGIVFEGFDREGKFRALCGGGRYDNLLTTYGSPTPIPCAGFGFGDCVIVELLQEKRLLPDIPHVVDDVVIPFDESMRPHALAVLRRLRDAGRSADIILDKKKVVQAFNYADRVGAVRAVLVAPEEWERGEVQVKMLREGTGKEEGGAERGFAVPLDRLV | soluble
10 | MAHHHHHHMGTTASTDSADSPFSVRSVDSSGGGGWRQEDPERFRKYMHLKSQADQWRQRHGHTPGATRGELTKNLIEEVYEEDFESVDHVQSMRLPPMVLKEMKDAVANEAERRCAETEKVMARCLQDKMWTSWKCQKERDALYQCVADRKEDNELLMAYRWKYNLGTFHGELIGRNNMMRRIWKEHFPDRDLPHPWVKDA | not soluble
11 | MAHHHHHHMGYGGPRVEFYTANQYSNFAAAIDRENAARVRSILHRRNLPAEQEAQRQREAAFRAYERAQADEVARSHAEEAEALERRRVKDERAQRRLATKTRRRSLTAAEVASRRSRHACLCRLAEPRKYQEAMYGSGMIGGAMPHQSGRDGKLPTVGRNGAVYCAGVDRDRIVPSRPALEGTVPPWKGSYSTHHGPHKLDAQMAKEAAAYYCAHPAPQRSASEQDMRQQTLQSIAAEHSMAAQQDGADVGMADASGAKGRSSVADAVQWHRMGSDNVDDEAGSIFSHGSSNGPIAATGNMHLSTTSTKHSVQLHLSRYGGAMTAPRPWRPSKAASENLTLPELADRLVCIQMSKSVVR | not soluble
12 | MAHHHHHHMHAVPKDDAEAPLSNTESRGRVALIDTSGYASDMNISAFVPQHAMKPYRVLAAMEIVRSLKIDAHCRTVVPPLVKVEELMAYHTDTYLANLGLHSCRSWLWNAETSKVFFSGDCPPVEGLMEHSIATASGTLMGAVLLNSGQVDVAVHWGGGMHHSKCGECSGFCYVNDIVLGILELLKCHDRVLYVDIDMHHGDGVDEAFCTSDRVFTLSLHKFGESFFPGTGHPRDVGYGRGRYYSMNLAVWDGITDFYYLGIFEHALHSIVRRYSPDAIVLQCGADSLAGDRLGLLNLSSFGHGQCVQAVRDLGIPMLALGGGGYTIRNVAKLWAYETSILTGHPLPPNTVLPVAEMPLSGWLFQDSPLLIVAQDRSNHVLPGLHCQRAYQMMTEQIDRHVPHIQPHPRLQKAFTAAEAADKQVEDGTTAVEDFK | not soluble

— the DeepSol protein solubility set
